The record followed here is US20040038883A1 (published 2004).

One test has as its target T1, Cdc2.
T1 construct: Bought enzyme
Nature of the test: in vitro CDC2 kinase activity assay, 33P-ATP, Flash Plate.

In the next test the target is T2, PKA.
T2 construct: Bought enzyme
Nature of the test: in vitro PKA kinase activity assay, 33P-ATP, kemptide substrate, Flash Plate.

A further test deals with T3, Src.
T3 construct: Bought enzyme
Nature of the test: in vitro Src kinase activity assay, 33P-ATP, Flash Plate.

Test [1] concerns the target T4, Akt wild-type recombinant protein (Akt1) (Homo sapiens (Human), UniProt P31749 1-480, as many as five phosphorylations seen by ESI-MS (positions not stated)).
T4 construct: also called Akt1 wild type
Nature of the test: in vitro Akt1 kinase activity assay, biotinylated Bad-derived peptide substrate.

Another test deals with T5, PKCδ.
T5 construct: Bought enzyme; also called PKC delta
The test can be described thus: in vitro PKC delta kinase activity assay, 33P-ATP, Flash Plate.

Another test deals with T6, PKCγ.
T6 construct: Bought enzyme; also called PKC gamma
Nature of the test: in vitro PKC gamma kinase activity assay, 33P-ATP, Flash Plate.

Another test deals with T7, SGK.
T7 chain: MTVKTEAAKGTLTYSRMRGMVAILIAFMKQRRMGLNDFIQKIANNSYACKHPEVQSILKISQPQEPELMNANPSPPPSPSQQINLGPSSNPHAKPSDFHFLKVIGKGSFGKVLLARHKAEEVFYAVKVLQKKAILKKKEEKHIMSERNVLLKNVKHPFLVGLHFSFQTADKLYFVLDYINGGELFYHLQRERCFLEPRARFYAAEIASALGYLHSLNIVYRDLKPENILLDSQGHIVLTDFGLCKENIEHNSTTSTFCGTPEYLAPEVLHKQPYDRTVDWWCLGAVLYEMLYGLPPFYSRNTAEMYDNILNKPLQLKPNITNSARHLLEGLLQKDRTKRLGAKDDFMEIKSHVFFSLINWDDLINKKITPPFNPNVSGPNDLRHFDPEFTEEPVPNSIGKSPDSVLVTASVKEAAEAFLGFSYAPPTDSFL
The test can be described thus: in vitro SGK kinase activity assay, 33P-ATP, Flash Plate.

A value given as a limit tells only on which side of the number the result lay.

T4 sequence (P31749 other isoform, or with tags, fused parts or gaps limits assumed): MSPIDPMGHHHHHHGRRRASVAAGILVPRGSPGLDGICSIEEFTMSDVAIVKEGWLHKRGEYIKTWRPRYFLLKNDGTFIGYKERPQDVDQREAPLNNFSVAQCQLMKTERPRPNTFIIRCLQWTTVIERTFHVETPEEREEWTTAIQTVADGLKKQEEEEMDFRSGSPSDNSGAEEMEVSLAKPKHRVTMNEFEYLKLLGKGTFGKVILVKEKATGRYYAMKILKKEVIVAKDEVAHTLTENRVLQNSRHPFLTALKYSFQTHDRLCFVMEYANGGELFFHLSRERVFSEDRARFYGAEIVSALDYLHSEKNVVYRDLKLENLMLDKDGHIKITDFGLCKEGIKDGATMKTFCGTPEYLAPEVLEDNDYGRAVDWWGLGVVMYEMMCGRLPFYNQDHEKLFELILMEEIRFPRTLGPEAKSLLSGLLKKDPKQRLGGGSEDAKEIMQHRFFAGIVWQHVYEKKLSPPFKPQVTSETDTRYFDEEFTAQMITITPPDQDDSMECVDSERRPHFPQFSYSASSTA

One may read the Ki as the equilibrium dissociation constant of an inhibitor or competing ligand from its target. As for VELDPEFEPRARERTYSFGH [Peptide 1], the Ki was greater than 33 µM with Cdc2; greater than 34 µM with PKA; greater than 33 µM in the test with Src; 1.11 µM in test [1]; greater than 42 µM in the test with PKCδ; greater than 30 µM in the test with PKCγ. In the test with SGK, this molecule registered a Ki of 1 µM.

B1: Peptide 4 (peptide)
peptide: VELDPEFEPRARERAYAFGH
notes: Made from peptide 2 by changing Thr at position 15 to Ala
For the molecule B1, the Ki is greater than 33 µM with Cdc2; greater than 34 µM with PKA; greater than 33 µM in the test with Src; 0.095 µM in test [1]; greater than 42 µM in the test with PKCδ; greater than 30 µM with PKCγ. The molecule also yielded a Ki in the test with SGK of 12.5 µM.
